# Results as given in the RNAGym collection of RNA variant scans (doi:10.1073/pnas.2313332121).
# Fewer inactive variants are shown than the library holds.
# B1: TPR 5TU (parent)
# chain: GGAUCUUCUCGAUCUAACAAAAAAGACAAAUCUGCCACAAAGCUUGAGAGCAUCUUCGGAUGCAGAGGCGGCAGCCUUCGGUGGCGCGAUAGCGCCAACGUUCUCAACUAUGACACGCAAAACGCGUGCUCCGUUGAAUGGAGUUUAUCAUG
# Variants of: B1
# Experiment: polymerase ribozyme fitness, log enrichment relative to wild type (log ratio); higher = more active; in vitro selection for triplet polymerase activity
# Method in brief: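 A heterodimeric triplet polymerase ribozyme had each of its subunits mutagenized by PCR into a library, which was transcribed. One round of in vitro selection, done in triplicate, annealed each library with a biotinylated primer, its partner subunit and triplets, then incubated it frozen at −7 °C before gel excision of extended constructs, streptavidin-bead capture and RT-PCR. Fitness is the logarithm of genotype enrichment relative to wild-type enrichment, based on Illumina sequencing of inputs and outputs and inverse-variance-weighted replicate averages. A base-2 logarithm is used, and genotypes were kept only with ≥10 input reads and ≥1 read per output.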
row,Variant,polymerase ribozyme fitness (log ratio)
1,GGAUCUUCUCGAUCUAACAAAAAAGACAAAUCUGCCACAAAGCUUGAGAGCAUCUUCGGAUGCAGAGGCGGCAGCCUUCGGUGGCACGUUAGCGCCAACGUUCUUAACUAUGACACGCAAAACGCGUGCUCCGAUGAAUGGAGUUUAUCAUG [G86A A89U C105U U134A],-3.77
2,GGAUCUUCUCGAUCUAACAAAAAAGACAAAUCUGCCACAAAGCUUGAGAGCAUCUUCGGAUGCAGAGGCGGCAGCCUUCGGUGGUGCGAUAGCGCCAACGUUCUCAACUAUGACACGCAAAACGCGUGCUCCGUUGAAGGGAGUUUAUCAUG [C85U U139G],-0.28
3,GGAUCUUCUCGAUCUAACAAAAAAGACAAAUCUGCCACAAAGCUUGAGAGCAUCUUCGGAUGCAGAGGCGGCAGCCUUCGGUGGUGCGAUAGCGCCAACGUUCUCAACUAUGACACGCAAAACGCGUGCUCCGUUGAACGGAGUUUAUCAUG [C85U U139C],-3.16
4,GGAUCUUCUCGAUCUAACAAAAAAGACAAAUCUGCCACAAAGCUUGAGAGCAUCUUCGGAUGCAGAGGCGGCAGCCUUCGGUGGUGCGAUAGCGCCAACGUUCUCAACUAUGACACGCAAAACGCGUGCUCCGUGGAAUGAAGUUUAUCAUG [C85U U135G G141A],-3.54
5,GGAUCUUCUCGAUCUAACAAAAAAGACAAAUCUGCCACAAAGCUUGAGAGCAUCUUCGGAUGCAGAGGCGGCAGCCUUCGGUGGUGCGAUAGCGCCAACGUUCUCAACUAUGACACGCAAAACGCGUGCUCCGUUGAAUGGAGUUGACCAUG [C85U U146G U148C],-2.24
6,GGAUCUUCUCGAUCUAACAAAAAAGACAAAUCUGCCACAAAGCUUGAGAGCAUCUUCGGAUGCAGAGGCGGCAGCCUUCGGUGGUGCGAUAGCGCCAACGUUCUCAACUAUGACACGCAAAACGCGUGCUCCGUUGAAUGGAGUAUAUCAUG [C85U U145A],-0.468
7,GGAUCUUCUCGAUCUAACAAAAAAGACAAAUCUGCCACAAAGCUUGAGAGCAUCUUCGGAUGCAGAGGCGGCAGCCUUCGGUGGUGCGAUAGCGCCAACGUUCUCAACUAUGACACGCAAAACGCGUGCUCCGUUGAAUGGAGUGUAUCAUG [C85U U145G],-2
8,GGAUCUUCUCGAUCUAACAAAAAAGACAAAUCUGCCACAAAGCUUGAGAGCAUCUUCGGAUGCAGAGGCGGCAGCCUUCGGUGGUGCGAUAGCGCCAACGUUCUCAACUAUGACACGCAAAACGCGUGCUCCGAUGAAUGGAGUUUAUCAUG [C85U U134A],-3.04
9,GGAUCUUCUCGAUCUAACAAAAAAGACAAAUCUGCCACAAAGCUUGAGAGCAUCUUCGGAUGCAGAGGCGGCAGCCUUCGGUGGUGCGAUAGCGCCAACGUUCUCAACUAUGACACGCAAAACGCGUGCUCCGGUGAAUGGAGUUUAUCAUG [C85U U134G],-2.89
10,GGAUCUUCUCGAUCUAACAAAAAAGACAAAUCUGCCACAAAGCUUGAGAGCAUCUUCGGAUGCAGAGGCGGCAGCCUUCGGUGGCACGAUAGCGCCAACGUUCUCAACUAUGACACGCAAAACGCGUGCUCCGUUGAAUGGAGUUUAUCAUG [G86A],-0.877
11,GGAUCUUCUCGAUCUAACAAAAAAGACAAAUCUGCCACAAAGCUUGAGAGCAUCUUCGGAUGCAGAGGCGGCAGCCUUCGGUGGUGCGAUAGCGCCAACGUUCUCAACUAUGACACGCAAAACGCGUGCGCCGUUGAAUGGAGUUUAUCAUG [C85U U130G],-3.71
12,GGAUCUUCUCGAUCUAACAAAAAAGACAAAUCUGCCACAAAGCUUGAGAGCAUCUUCGGAUGCAGAGGCGGCAGCCUUCGGUGGUGCGAUAGCGCCAACGUUCUCAACUAUGACACGCAAAACGCGUGCUCCGCUGAAUGGAGAUUAUAAUG [C85U U134C U144A C149A],-4.1
13,GGAUCUUCUCGAUCUAACAAAAAAGACAAAUCUGCCACAAAGCUUGAGAGCAUCUUCGGAUGCAGAGGCGGCAGCCUUCGGUGGUGCGAUAGCGCCAACGUUCUCAACUAUGACACGCAAAACGCGUGCUCCGUUGAAUGGAGUUUACCAUG [C85U U148C],-2.19
14,GGAUCUUCUCGAUCUAACAAAAAAGACAAAUCUGCCACAAAGCUUGAGAGCAUCUUCGGAUGCAGAGGCGGCAGCCUUCGGUGGUGCGAUAGCGCCAACGUUCUCAACUAUGACACGCAAAACGCGUGCUCCGUUGAAUGGAGUUUAACAUG [C85U U148A],-3.08
15,GGAUCUUCUCGAUCUAACAAAAAAGACAAAUCUGCCACAAAGCUUGAGAGCAUCUUCGGAUGCAGAGGCGGCAGCCUUCGGUGGUGCGAUAGCGCCAACGUUCUCAACUAUGACACGCAAAACGCGUGCUCCGUUGAAUGGAGUUGAUCAUG [C85U U146G],-0.713
16,GGAUCUUCUCGAUCUAACAAAAAAGACAAAUCUGCCACAAAGCUUGAGAGCAUCUUCGGAUGCAGAGGCGGCAGCCUUCGGUGGUGCGAUAGCGCCAACGUUCUCAACUAUGACACGCAAAACGCGUGCUCCGUUGAAUGGAGUUAAUCAUG [C85U U146A],-0.167
17,GGAUCUUCUCGAUCUAACAAAAAAGACAAAUCUGCCACAAAGCUUGAGAGCAUCUUCGGAUGCAGAGGCGGCAGCCUUCGGUGGCACGUUAGCGCCAACGUUCUCAACUAUGACACGCAAAAUGCGUGCUCCGUUGAAUGGAGUUUAUCAUG [G86A A89U C123U],-2.1
18,GGAUCUUCUCGAUCUAACAAAAAAGACAAAUCUGCCACAAAGCUUGAGAGCAUCUUCGGAUGCAGAGGCGGCAGCCUUCGGUGGUGCGAUAGCGCCAACGUUCUCAACUAUGACACGCAAAACGCGUGCUCCGUUGAAUGGAGUUUAUCAGG [C85U U151G],-4.14
19,GGAUCUUCUCGAUCUAACAAAAAAGACAAAUCUGCCACAAAGCUUGAGAGCAUCUUCGGAUGCAGAGGCGGCAGCCUUCGGUGGCACGUUAGCGCCAACGUUCUCAACUAUGACACGCAAAACGCGUGCUCCGUUGAAUGGAGUUUAUCAUG [G86A A89U],-1.96
